Laboratory results: US20050142568A1 (published 2005)

Experiments:
GST-CRN-1 = molecular target: T1, GST-CRN-1 (C. elegans, UniProt Q9N3T2 21-382); test: GST pull-down, 35S-Met protein vs GST fusion; - means no detectable binding (footnote a)
T1 construct: also called CRN-1 GST-fusion protein; not shown: glutathione S-transferase tag encoded by vector pGEX4T-2
T1 sequence (looked up): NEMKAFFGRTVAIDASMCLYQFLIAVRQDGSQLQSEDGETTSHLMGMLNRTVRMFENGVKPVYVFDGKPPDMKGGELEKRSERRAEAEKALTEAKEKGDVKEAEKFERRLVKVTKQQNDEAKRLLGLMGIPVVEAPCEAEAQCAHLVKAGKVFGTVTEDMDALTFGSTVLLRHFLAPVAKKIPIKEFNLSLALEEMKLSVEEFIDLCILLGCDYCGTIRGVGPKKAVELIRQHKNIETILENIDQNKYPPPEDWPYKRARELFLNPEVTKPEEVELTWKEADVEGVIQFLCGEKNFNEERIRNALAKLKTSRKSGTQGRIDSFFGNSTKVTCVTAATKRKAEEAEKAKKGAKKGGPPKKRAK
In short: (§1)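 GST alone or GST fusions (5 μg) on glutathione beads incubated 2 hours at 4° C. with in vitro translated ³⁵S-Met-labeled proteins; bound protein by 12% SDS-PAGE and autoradiography. Scored against background binding of ³⁵S-luciferase to GST fusions and of labeled proteins to GST.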

GST-CRN-4 = molecular target: T2, GST-CRN-4 (C. elegans, UniProt Q10905 1-298); test: as above
T2 construct: also called CRN-4 GST-fusion protein; not shown: glutathione S-transferase tag encoded by vector pGEX4T-2
T2 sequence (looked up): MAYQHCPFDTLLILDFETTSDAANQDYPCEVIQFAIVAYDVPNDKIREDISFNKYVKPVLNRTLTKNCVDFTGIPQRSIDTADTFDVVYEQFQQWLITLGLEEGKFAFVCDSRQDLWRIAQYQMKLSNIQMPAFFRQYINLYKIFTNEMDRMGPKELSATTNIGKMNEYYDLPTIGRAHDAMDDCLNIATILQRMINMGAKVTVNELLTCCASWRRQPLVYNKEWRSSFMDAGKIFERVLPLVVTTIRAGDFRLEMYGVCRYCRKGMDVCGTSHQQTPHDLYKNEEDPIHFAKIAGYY
In short: as §1

- binding result (GST-CRN-1): no binding
- binding result (GST-CRN-4): no binding
B1: ^35S-Methionine labeled CRN-2 (enzyme, C. elegans)
chain: MALYELVDIGANLGHPSYQKDLNDVLDRAKQAGLSKIMVTGTSEKISHECADLVEKYPGFLYFTAGVHPHDAKDWNDGTLEALKKLQENPSCVAVGECGLDFNRNFSPQDVQKEVFAKQVDMAVKLQKPLFIHEREAHEDMVKILTAAGPSLPPAVIHCFTGTVVEAKKYLEMGFYIGLTGFLWKDRSDNGVQAGLRSGEIPIEKLVLETDAPYMYPKINDKKIPKEIKSLITPETEALHNFSSFNRNEPCSLAAVCELVAAFAGRDPKEVAKITTENAKKVYKLE
